{
  "source": "patent US20250312444A1",
  "about": "(BEIJING TUO JIE BIOPHARMACEUTICAL, published 2025)",
  "binders": {"B1": {"name": "0051 (other)", "chain": "EVQLLESGGGLVQPGGSLRLSCAASGFTFLTSCMGWFRQAPGKEREGVSSIYTVGGSTFYTNSVKGRFTISRDNSKNTLYLQMNSLRAEDTAVYYCAAGSPARCRLRDPTTFDYWGQGTLVTVSSGGGGQGGGGQGGGGQGGGGQGGGGQSWMEEVIKLCGRELVRAQIAICGMSTWSGGGSGGSGGGQLYSALANKCCHVGCTKRSLARFC", "notes": "Single-chain fusion: anti-HSA VHH, linker, relaxin-2 B chain, linker, relaxin-2 A chain; also called fusion protein 0051; molecule 0051"}},
  "key": {"human RXFP1 receptor [1]": {"target": "T1, human RXFP1 receptor (human, UniProt Q9HBX9 1-757)", "T1 sequence (looked up)": "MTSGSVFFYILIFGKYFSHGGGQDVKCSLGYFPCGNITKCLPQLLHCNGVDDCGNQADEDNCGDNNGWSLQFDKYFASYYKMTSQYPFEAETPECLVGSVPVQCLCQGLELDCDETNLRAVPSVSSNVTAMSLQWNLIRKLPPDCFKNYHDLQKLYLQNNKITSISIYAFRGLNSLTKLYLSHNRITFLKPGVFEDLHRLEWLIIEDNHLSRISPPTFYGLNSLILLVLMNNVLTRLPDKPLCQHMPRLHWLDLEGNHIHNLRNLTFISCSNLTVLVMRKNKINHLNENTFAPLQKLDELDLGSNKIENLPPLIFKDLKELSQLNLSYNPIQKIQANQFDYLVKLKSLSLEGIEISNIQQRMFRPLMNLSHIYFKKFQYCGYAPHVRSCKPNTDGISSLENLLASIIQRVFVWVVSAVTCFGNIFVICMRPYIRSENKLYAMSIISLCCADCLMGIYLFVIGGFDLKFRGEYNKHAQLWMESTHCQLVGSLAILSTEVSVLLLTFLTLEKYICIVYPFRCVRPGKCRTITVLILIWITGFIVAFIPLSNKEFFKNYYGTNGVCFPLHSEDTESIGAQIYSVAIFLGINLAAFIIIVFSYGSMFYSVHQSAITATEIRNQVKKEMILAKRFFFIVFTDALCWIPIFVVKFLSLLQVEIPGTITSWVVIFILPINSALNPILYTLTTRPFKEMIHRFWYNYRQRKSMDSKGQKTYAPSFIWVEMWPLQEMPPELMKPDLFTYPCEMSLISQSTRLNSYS", "experiment": "cell-based or functional assay"}, "rat serum albumin": {"target": "T2, rat serum albumin (rat)", "T2 chain": "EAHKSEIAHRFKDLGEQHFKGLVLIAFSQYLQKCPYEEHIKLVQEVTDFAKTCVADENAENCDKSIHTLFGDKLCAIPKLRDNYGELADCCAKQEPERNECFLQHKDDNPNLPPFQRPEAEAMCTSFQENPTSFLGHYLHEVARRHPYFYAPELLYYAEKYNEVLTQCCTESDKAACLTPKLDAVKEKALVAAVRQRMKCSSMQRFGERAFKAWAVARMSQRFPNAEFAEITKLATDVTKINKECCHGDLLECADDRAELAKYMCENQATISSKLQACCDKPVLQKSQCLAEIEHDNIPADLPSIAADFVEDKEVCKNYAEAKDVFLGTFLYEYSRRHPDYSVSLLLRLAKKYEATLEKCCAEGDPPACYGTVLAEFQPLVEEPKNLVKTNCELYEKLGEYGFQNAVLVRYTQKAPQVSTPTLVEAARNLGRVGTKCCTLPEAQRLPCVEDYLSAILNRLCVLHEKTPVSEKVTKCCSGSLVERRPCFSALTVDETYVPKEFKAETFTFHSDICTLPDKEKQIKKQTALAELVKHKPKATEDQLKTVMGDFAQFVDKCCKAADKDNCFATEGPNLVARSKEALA", "experiment": "SPR Biacore T200, fusion protein captured by anti-VHH antibody, albumin as analyte", "description": "(§1) Coupling of an anti-VHH antibody (MonoRab™ Rabbit Anti-Camelid VHH Cocktail, Genescript, Cat No. A02014) to an S series CM5 sensor chip (GE, Cat No. 29-1049-88) was performed using an amino coupling kit (GE, Cat No. BR-1000-50). The antibody was diluted to 10 μg/mL with 10 mM sodium acetate (pH 4.5) (GE, Cat No. BR-1003-50). After the CM5 chip was activated with EDC/NHS, the diluted anti-VHH antibody was flowed over the chip to reach a surface response value of about 5000 RU, and then the chip was blocked with ethanolamine for later use.\n(§2) The albumin from each species was serially diluted in a gradient with 1XHBS-EP (10 mM HEPES, pH 7.4, 150 mM NaCl, 3 mM EDTA, 0.05% Surfactant P20). The test fusion protein molecule was captured using the anti-VHH antibody-coupled chip, with a response value of about 30 RU. Then, different concentrations of serum albumin were flowed over the surface of the chip for 3 min at a flow rate of 50 μL/min, with a dissociation time of 1-10 min (the dissociation time varied depending on the species of albumin). After the end of each cycle, the chip was regenerated using 10 mM glycine-hydrochloric acid (pH 1.5) (GE, Cat No. BR-1003-54). The reaction signals were detected in real-time using Biacore T200 (GE) to obtain the association and dissociation curves, and the data obtained were fitted with a Langmuir 1:1 binding model using the BIAevaluation version 4.1 software at appropriate concentration points to obtain the affinity values."}, "[2]": {"target": "human serum albumin (HSA) (human)", "experiment": "SPR Biacore T200, fusion protein captured by anti-VHH antibody, albumin as analyte", "description": "as §1, §2"}, "human RXFP1 receptor [3]": {"target": "T1, human RXFP1 receptor", "experiment": "cell-based or functional assay", "remark": "listed apart in the source"}, "dog RXFP1 receptor": {"target": "dog RXFP1 receptor (dog)", "experiment": "cell-based or functional assay"}, "rat RXFP1 receptor": {"target": "T3, rat RXFP1 receptor (rat, UniProt Q6R6I6 1-758)", "T3 sequence (looked up)": "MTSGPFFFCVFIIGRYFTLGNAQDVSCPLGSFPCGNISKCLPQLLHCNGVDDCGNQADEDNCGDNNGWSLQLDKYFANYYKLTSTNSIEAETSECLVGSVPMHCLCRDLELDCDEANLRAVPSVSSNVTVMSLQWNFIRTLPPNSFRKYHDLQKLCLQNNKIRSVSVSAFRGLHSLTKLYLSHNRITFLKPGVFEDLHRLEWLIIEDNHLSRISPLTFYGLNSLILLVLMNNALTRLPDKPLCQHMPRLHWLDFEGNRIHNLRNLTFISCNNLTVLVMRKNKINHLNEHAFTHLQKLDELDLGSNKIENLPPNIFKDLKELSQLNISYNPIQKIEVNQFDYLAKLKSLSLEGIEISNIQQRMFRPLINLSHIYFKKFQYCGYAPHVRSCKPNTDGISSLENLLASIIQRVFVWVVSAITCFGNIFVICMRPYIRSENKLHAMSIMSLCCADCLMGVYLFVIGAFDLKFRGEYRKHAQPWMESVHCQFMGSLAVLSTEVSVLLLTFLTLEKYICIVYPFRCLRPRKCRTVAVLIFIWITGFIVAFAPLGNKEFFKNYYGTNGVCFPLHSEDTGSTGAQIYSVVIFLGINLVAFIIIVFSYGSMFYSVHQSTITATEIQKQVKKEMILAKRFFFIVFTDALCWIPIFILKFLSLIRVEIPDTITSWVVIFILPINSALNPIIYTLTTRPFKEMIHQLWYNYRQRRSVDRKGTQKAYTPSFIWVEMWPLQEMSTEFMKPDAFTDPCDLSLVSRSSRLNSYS", "experiment": "cell-based or functional assay"}},
  "data": [
    {"binder": "B1", "values": [
      {"measurement": "EC50 (nM), cAMP production in THP1 cells, 1% HSA", "setting": "human RXFP1 receptor [1]", "result": 28.4, "unit": "nM"},
      {"measurement": "EC50 (nM), cAMP production in THP1 cells, without HSA", "setting": "human RXFP1 receptor [1]", "result": 3.83, "unit": "nM"},
      {"measurement": "Kd", "setting": "rat serum albumin", "result": 156, "unit": "nM"},
      {"measurement": "koff", "setting": "rat serum albumin", "result": 0.00581, "unit": "s⁻¹"},
      {"measurement": "kon", "setting": "rat serum albumin", "result": 37200, "unit": "M⁻¹ s⁻¹"},
      {"measurement": "Kd", "setting": "[2]", "result": 20.2, "unit": "nM"},
      {"measurement": "koff", "setting": "[2]", "result": 0.0011, "unit": "s⁻¹"},
      {"measurement": "kon", "setting": "[2]", "result": 54500, "unit": "M⁻¹ s⁻¹"},
      {"measurement": "EC50 (nM), cAMP production in CHO-K1 cells with receptor overexpression", "setting": "human RXFP1 receptor [3]", "result": 28.3, "unit": "nM"},
      {"measurement": "EC50 (nM), cAMP production in CHO-K1 cells with receptor overexpression", "setting": "dog RXFP1 receptor", "result": 2210, "unit": "nM"},
      {"measurement": "EC50 (nM), cAMP production in CHO-K1 cells with receptor overexpression", "setting": "rat RXFP1 receptor", "result": 21.1, "unit": "nM"}
    ]}
  ]
}
